Drawing on patent US20030003547, this text covers activity (% joint molecules in 5 min) for one sequence.

In this series the target is T1, RecA (UniProt P0A7G6).
T1 sequence: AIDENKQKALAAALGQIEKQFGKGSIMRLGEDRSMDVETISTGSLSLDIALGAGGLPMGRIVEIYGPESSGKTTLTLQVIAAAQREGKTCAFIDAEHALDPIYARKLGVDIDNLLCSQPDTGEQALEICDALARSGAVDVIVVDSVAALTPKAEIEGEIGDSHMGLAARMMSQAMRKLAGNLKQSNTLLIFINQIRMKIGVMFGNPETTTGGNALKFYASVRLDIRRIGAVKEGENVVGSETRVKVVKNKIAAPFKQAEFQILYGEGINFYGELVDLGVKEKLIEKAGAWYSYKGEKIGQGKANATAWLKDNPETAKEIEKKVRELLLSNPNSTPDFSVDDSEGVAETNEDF
As to the kind of experiment: EMSA. The conditions noted are these: 5'-acridine; C5-propynyl-dU, 5-methyl-dC, 7-deaza-dG in TFO; triethyleneglycol spacer between TFO and adapter; with Y0Gorec plasmid, 15 uM RecA, ATPgammaS, ADP, 12.5 mM MgCl2; 22% without RecA; 100% of complex associated with plasmid in RecA reaction. On the technique in general: In EMSA bound probe runs differently from free probe, usually more slowly.

Consider “NNNNNTNTNNNGNGGNGCGCGTGGCCAGC [TFO1-S + R (GOREC with homologous 40-nt R)]”, for which the activity (% joint molecules in 5 min) is 80.
